From the nanobody polyreactivity screen of Harvey et al. (2022)

Experiment: yeast display, Sf9 membrane polyspecificity reagent, FACS + sequencing; frameworks hold sequencing errors
Procedure, shortened: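 Galactose induction of a Saccharomyces cerevisiae BJ5465 synthetic nanobody display library ran 36–48 hours. The cells were then stained for 1 hour at 4 °C with 10% biotinylated, detergent-solubilized Sf9 membrane reagent, pulled down on streptavidin microbeads and FACS-sorted into low and high (top ~1%) gates on expression and reagent-binding fluorescence. Labels for polyreactivity follow the gate of origin.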

Row | Sequence | polyreactivity (PSR sort gate)
1 | QVQLVESGGGLVQAGGSLRLSCAASGSIFVFYAMGWYRQAPGKERELVAAITRSGGRTYADSVKGRFTISRDNAKNTVYLQMYSLKPEDTAVYYCNAGTYWYNGRYTRSAHDYWGQGTQVTVSS | high polyreactivity
2 | QVQLVESGGGLVQAGGSLRLSCAASGSIFGYYTMGWYRQAPGKERELVATISRSGGSTYYADSVKGRFTISRDNAKNTVYLQMNSLKPEDTAVYYCGARSWGGYDSRGYWGQGTQVTVSS | high polyreactivity
3 | QVQLVESGGGLVQAGGSLRISCAASGLTFFRNAIGWYRQATGKERELVATITSTSSTNYADSVKVRFTISRDNSKNTVYLQMNSLKPEDTAVYYCAARTVGRKAGFDYWGQGTQVTVSS | high polyreactivity
4 | QVQLVESGGGLVQAGGSLRLSCAASGRIFVDNAMGWYRQAPGKERELVAAITRGGSTYADSVKGRFTISRDNAKNTVYLQMNSLKPEDTAVYYCAADLWSVPFTVYTFGIFYYWGQGTQVTVSS | low polyreactivity
5 | QVQLVESGGGLVQAGGSLRLSCAASGFIFSWYAMGWYRQAPGKERELVATISSSGGRTHYADSVKGRFTISRDNAKNTVYLQMNSLKPEDTAVYYCAAQPFSYFTTVYYWGQGTQVTVSS | high polyreactivity
6 | QVQLVESGGGLVQAGGSLRLSCSASGSTFFPYAMGWYRQAPGKERELVAAITSGGNTNYADSVKGRFTISRDNAKNTVYLQMNSLKPEDTAVYYCAADYLWHYRKYDYWGQGTQVTVSS | low polyreactivity
7 | QVQLVESGGGLVQAGGSHRLSCAASGGIAGNTMGWYRQAPGKERELVAAITRSGGRTYYADSVKGRFTISRDNAKNTVYLQMNSLKPEDTAVYYCAVTGLVRRRYGYWGQGTQVTVSS | high polyreactivity
8 | QVQLVESGGGLVQAGGSLRISCAASGRTFYYYVMGWYRQAPGKERELVAAISRGGRTYYADSVKGRFTISRDYAKNTVYLQMNSLKPEDTAVYSCNAVPRKSRHRYDYWGQGTQVTVSS | high polyreactivity
9 | QVQHVESGGGLVQAGGSLRLSCAASGTIFLYNAMGWYRQAPGKERELVAAIRGSDGITFYADSVKGRFTISRDNAKNTVYLQMNSLKPEDTAVYYCAKDTYRSPRHDYGYWGQGTQVTVSS | low polyreactivity
10 | QVQLVESGGGLVQAGGSLRLSCAASGRTCGGYAMGWYRQEPGNERELVAAISYRGARTYYADSVKGRFTISRDNAKNTVYLQMNSRKPEDTAVYYCAASRPGLRTPGQMGYWGQGTQVTVSS | high polyreactivity
11 | QVQLVESGGGLVQAGGSLRLICAASASIFQPYAMGWYRQAPGKERELVAAISKSGGNTYYADSVKGRFSSSRDYAKNTVYLQMNRLKPEVSAVYYCAALDYWGQGTQVTLSS | low polyreactivity
12 | QVQLVESGGGLVQAGGSHRLSCAASGRIFTYYAMGWYRQAPGKQREFVAAITYRGGRTYYADSVKGRFTISRDNAKNTVYLQLNSLNPEDTAVYYCNVAPYGYWPRYYPWRELDYWGQGTQVTVSS | high polyreactivity
13 | QVLLVESAGGLVQAGGSLRLSCAASGRTFYRYAMGWYRQAPGKERELVAVISWTSGSTYYADSVKGRFTISRDNAKNTVYLQMNSLKPEDTAVYYCAARRGGSYRYEYWGQGTQVTVSS | high polyreactivity
14 | QVQLVESGGGLVQAGGSLRLSCAASGSIIDLNAMGWYRQAPGKERDLVAAISSGGGTYYADSVKGRFTISRDNAKNNVYLQMNSLKPEDTAVYYCAAIGYRVYRYYRGRTYDYWGQGTQVTVSS | high polyreactivity
15 | QVQLVESGGGLVQAGGSLRLSCAASGSIFRVYMGWYRQAPGKERALVATIRWSSGSTYYADSVKGRFTISRDNAKNTVYLQMNSLKPEDTAVYYCAVKGPYYDDYDYWGQGTQGTVSS | low polyreactivity
16 | QVQLVESGGVLVQAGGSLRLSCAASGFTFDYYAMGWYIPAPGKERELVASISYNGGITNYADSVQGRFTISRDNAKNTVFLHMHSLKPEDTAVYYWNAVPLYYWRFDYWGQGTQVTVSS | low polyreactivity
17 | QVQLVESGGRLVQAGGSLLLSCAASGSTIGYYDMGWYRQAPGKERELVASITKSGGTTRYADSVKGRFTISRDNAKNTVYLQMNSLKPEDTAVYYCNADRSLLYSRKIEYDYWGQGTQVTVRS | low polyreactivity
18 | QVQLVESGGGLVQAGGSLRLSCAASGSTFRPYTMGWYRQAPGKERELVAAINRRGSSTYYADSVKGRFTISRDNAKNTVYLQMNSLKPEDTAVYYCNAVPGSRYGTYDYWGQGTQVTVSS | high polyreactivity
19 | QVQLVESGGGLVQAGGSLRLSCAASGFTFQYYAMGWYRQAPGKERELVAAISWSGDSTYYADSVKGRITISRENAKNSVYLQMNSLKPEDTAVYYCAVYYTRGYDYWGQGTQVTVSS | high polyreactivity
20 | QVQLVESGGGLVQAGGSLRLSCAASGRTFYSYARGWYRQAPGKEREFFAAISRSGGSTYYADSVKGRFTISRDYAKNTVYLQMNSLKPEDTAVYYCAARYRRDDYDYWGQGTQVTVSS | high polyreactivity
21 | QVQLVESGGGLVHAGGSLRLSCAASGRTFYYNAKGWYRQAPGKESELVAAISSGDSTYYADSVKGRFTISRDNAKNTVSLQLNSLKPEDTAVYYCYADTGLGSLDFDKRDYWGQGTQVTVSS | low polyreactivity
22 | QDQLVESGGGIVQAGGSLRLSCAASGSTIPSYAMGWYRQAPGKERELVASITYSDGTTRYADSVKGRFTISRDNAKNTVCLQMNRLKPVDTAVYYCNAVYDREGMDYWGQGTQVTVSS | low polyreactivity

Row | Sequence | polyreactivity (PSR sort gate)
23 | QVQLVESGGGLVQAGGSLRLSCAASGFIFSRYAMGWYRQAPGKERELVAAISIGGSTYYADSVKGRFTISRDNAKNTVYVQMNSLKPEDTAVYYCPVDYRHSSSWNAGPWEMYYWGQGTQVTVSS | low polyreactivity
24 | QVQLVESGGGLVQAGGSLRLSCAASGRIFPTNAMGWYRQAPGKERELVAAIPVSGGSTYYADSVKGRFTISRDNAKNTVYLQMNSLKPEDTAVYYCAVDDRASVGSRLDHWGQGTQVTVSS | low polyreactivity
25 | QVQLVESGGGLVQAGGSLRLSCAASGSIFTTYAMGWYRQAPGKERELVAAISRAGDTTYADSVKGRFTISRDNAKNTVYLQRNSLKPEDTAVYYWGQGTQVTVSS | low polyreactivity
26 | QVQLVESGGGLVQAGGSLRLSCAASGRIFKWNAMGWYRQAPGKERELVAAISLSGGSTYYADSVKGRFTISRDKAKNTVYLQMNSLKPEDTAVYYCNAYAYHRYGYWGQGTQVTVSS | high polyreactivity
27 | QVQLVESGGGLVQAGGSLRLSCAASGAILYGNAMGWYRQAPGKERELVAAISYSGGRTYYADSVKGRFTISRDNAKYTVYLQMNSLKPEDTAVYYCASLHSGRVQNFDYWGQGTQVTVSS | high polyreactivity
28 | QVQLVESGGGLVQAGGSLRLSCAASGRTFYYNAMGWYRQAPGKERELVAAISYRGGSTYYADSVKGRFTISRDNAKNTVYLQMNSLKPEDTAVYYCAKYPHPLKYPGYPSEFDYWGQGTQVTVSS | low polyreactivity
29 | QVQLVESGGGLVQAGASLSLSCAASGRTFGGNAMGWYRQAPGKEREFVAAISRSGTSTYYADSVKGRFTISRDNAKNTVYFQMNSLKPEATAVYYCAALNYLKFAHKYDYWGQGTQVTVSS | low polyreactivity
30 | QVQLVESGGGLVQAGGSLRLSCAASGFIFRSYAMGWYRQAPGKERELVAVISRRGVNTHYADSVKGRFTISRDNAKNTVNLQMNSLKPEDTAVYYCAKGLTALGDYWGQGTQVTVSS | high polyreactivity
31 | QVQLVESGGGLVQAGGSLRLSCAASVFIFGYYAMGWYRQAPGKERELVADISWSGVSTYYADSVKGRFTISRDNAKNTVYLQMNSLKPEDNAVYYCAVGYVLTGVFQARFDYWGQGTQVTVSS | high polyreactivity
32 | QVQLVESGGGLVQARGSLRLSCAASGYIFAVYAMGWYRQANGKERELVAAITWSGGRTYYADSVKGRFTISLDNAKNTVYLQMNSLKPEDTAVYYCNARARSRKFYYWGQGTQVTVSS | high polyreactivity
33 | QVQLVESGGGLVQAGGSLRLSCAASGRTFWYYTMGWYRQAPGKERELVAAISSGGTTNYADSVKGRFTISRDNAKNTVYLQMNSLKPEDTAVYYCAAEANSGDGYYWGQGTQVTVSS | high polyreactivity
34 | QVQLVESGAGLVQAGVSLRLSCAASGRTFRSNAMGWYRQAPGKERELVAAISWSGGSTYYADSVKGRFTISRDNAKNTVYLQMNSLKPEDTAVYDCAVGGSGYGRFGGGYARDYWGQGTLVTVSS | high polyreactivity
35 | QVQRVESGGGLVQAGGSLRLSCAASGSIIQPYARGWYRQSPGKERELVAAIRSSTGSTYYADSVKGRFTISRDIAKNTVYLQQNSLKPEDSAVYYCARRRWSYVRGYSSGMYYWGQGTQVTVSS | high polyreactivity
36 | QVQLVESGGGLVQAGGSLRLSCAASGITFYRYAMGWYRQAPGKERELVAAITRSVGRTYYADSVKGRFTISRDNAKNTVYLQMNSLKPEDTAVYYCAADSPYYRGDYYWGLGTQVTVSS | high polyreactivity
37 | QVQLVESGGGLVQAGGSLRLSCAASGITFSYYAMGWYRQAPGKEREFVAAINWDGGSTYYADSVKGRFTISRDNAKNTVYLQMNSLKPEDTAVYYCNADEFEYIYVDTLNYGDDYWGQGTQVTVSS | low polyreactivity
38 | QVQLVESGGGLVQAGGSLRLSCAASGFTIGYNVMGWYREAAGKERELVATISWNGARTYYADSVKGRFTISRDNAKNTVYLQMNSLKPEDTAVYYCAARRYYRGEYDYWGQGTQVTVSS | low polyreactivity
39 | QVQLVESGAGLVQAGGSLRLSCAASGSIFYPYAMGWYRQAPGKERELVAAITYSGGSTYADSVKGRFTISRDNAKNTVYLQMNSLKPEDTAVYYCAARYIIHVGSWYDYWGQGTQVTVSS | high polyreactivity
40 | QVQLVESGGGLVQAGGSLRLSCAASGIIFRQYAMGWSRQEPGKERELVAGITGTGSTYYADSVKGRFTISRDNAKNTVYLQLNSLKPEETAVYYCATRSFRVFYPYPYDYWGQGTQVTVSS | high polyreactivity
41 | QLQLVDSGGGLVQAGGSLRLSCAASGRIFSANAMGWYRQAPGKERELVAAIDGSDGITYYADSVKGRFTISRDNAKNTVYLQMNSLKPEDTAVYYCAAYLPYTTYRYRYDYWGQGNQVTVSS | high polyreactivity
42 | QVQLVESGGGLVQAGGSLRLSCAASGRIFRYYAMGWYRQAPGKERELVAAISSGVGNTYYADSVKWRFTISRDNAKNTVYLQKNSLKPEDTAVYYCNAKWRKFGTVRYDYWGQGTQVTVSS | high polyreactivity
43 | QVQLVESGGGLVQAGGSLRLSCAASGFTFVWNARGWYRQAPGKERELVAVISYSGGSTYYADSVKGRFTISRDNAKNTVYLQMNSLKPEETAVDYCAAEFVTYYSSSKRAYYYWGQGTLVTVSS | high polyreactivity
